Source: article PMC3285515

Target: HSV-1 glycoprotein D (gD), wild type, on KOS/tk12 virions (HSV-1 (strain KOS)) (UniProt A1Z0Q5)
Sequence of UniProt A1Z0Q5 (A1Z0Q5 26-394): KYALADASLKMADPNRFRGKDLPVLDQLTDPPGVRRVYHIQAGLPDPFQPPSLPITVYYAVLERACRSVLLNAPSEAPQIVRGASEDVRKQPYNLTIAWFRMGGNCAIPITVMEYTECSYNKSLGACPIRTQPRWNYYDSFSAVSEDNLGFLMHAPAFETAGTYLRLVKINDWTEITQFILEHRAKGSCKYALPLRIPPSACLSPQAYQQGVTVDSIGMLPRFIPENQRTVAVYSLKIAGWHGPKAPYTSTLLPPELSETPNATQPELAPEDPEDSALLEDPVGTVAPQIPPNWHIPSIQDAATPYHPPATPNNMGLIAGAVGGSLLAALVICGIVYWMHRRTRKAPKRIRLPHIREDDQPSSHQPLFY

Q: Which sHA102-mediated KOS/tk12 infection of receptor-deficient CHO-K1 cells; sHA102 0-1,000 nM, MOI 3 and 9; ONPG assay and X-gal staining (percent of cells infected) (% of the cells infected) does the source give for “sHA102, soluble HVEM (HveA) protein containing the first two cysteine-rich pseudorepeats (N-terminal 102 amino acids of HVEM) (domain or fragment)” here?
A: The sHA102-mediated KOS/tk12 infection of receptor-deficient CHO-K1 cells; sHA102 0-1,000 nM, MOI 3 and 9; ONPG assay and X-gal staining (percent of cells infected) (% of the cells infected) was 90 to 100.
